# In patent publication US9212231B2, “TRAIL R2-specific multimeric scaffolds” (MEDIMMUNE, LLC, dated 2015):
# Columns and labels:
# [1] = biological target: Murine CD40L on the Th2 cell line D10.G4.1 (murine) (UniProt P27548)
# [2] = biological target: TRAIL R2 (recombinant, form not given) (human, UniProt O14763, biotin (in the capture ELISA and the competition ELISA of Example 14)); assay: SPR (ProteOn XPR36), TRAIL R2 immobilised, equilibrium analysis
# [3] = biological target: TRAIL R2-Fc fusion protein (human) (UniProt O14763); assay: competition ELISA: inhibition of binding of 0.75 nM biotinylated TRAIL R2-Fc to plate-coated A9(1C12)
# Chain of TRAIL R2-Fc fusion protein (human) (O14763 56-182 limits assumed): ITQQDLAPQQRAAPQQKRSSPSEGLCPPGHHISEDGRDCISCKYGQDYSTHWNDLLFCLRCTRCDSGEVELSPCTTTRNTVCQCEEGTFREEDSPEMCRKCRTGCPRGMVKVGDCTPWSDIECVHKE
# [4] = biological target: TRAIL R2 expressed on the cell surface (human, UniProt O14763); assay: cell-based or functional assay
# [5] = biological target: TRAIL R2-Fc fusion protein (human) (UniProt O14763); assay: competition ELISA on plate-coated A9(1C12)
Molecule,"IC50, inhibition of Murine CD40L-induced CD86 expression on CD19 gated B cells [1] [nM]","Fold Improvement (Kd, against lead clone 1C12) [2] [fold]",Kd [2] [nM],IC50 [3] [nM],"Maximum Inhibition %, H2122 cells [4] [%]",fold higher affinity relative to the monomeric A1 protein [5] [fold],fold lower IC50 than the monomer A1 [5] [fold],"EC50, killing of H2122 cells [4] [nM]"
A1(1E11) (designed binder) AIEVKDVTDTTALITWAKPWVDPPPLWGCELAYGIKDVPGDRTTIDLQQKHTAYSIGNLKPDTEYEVSLICFDPYGAKSNPAKETFTTGGGTLGHHHHHHHH,,40,103,16,,,,
A2(1E11) (designed binder) SGGGGSAIEVKDVTDTTALITWAKPWVDPPPLWGCELAYGIKDVPGDRTTIDLQQKHTAYSIGNLKPDTEYEVSLICFDPYGAKSNPAKETFTTGGGGSGGGGSGGGGSAIEVKDVTDTTALITWAKPWVDPPPLWGCELAYGIKDVPGDRTTIDLQQKHTAYSIGNLKPDTEYEVSLICFDPYGAKSNPAKETFTTGGGGSGGGGSGTLGHHHHHHHH,,,,0.5,,30 to 40,> 30,

# Continued, in another order:
"IC50, inhibition of Murine CD40L-induced CD86 expression on CD19 gated B cells [1] [nM]","Fold Improvement (Kd, against lead clone 1C12) [2] [fold]",Kd [2] [nM],IC50 [3] [nM],"Maximum Inhibition %, H2122 cells [4] [%]",fold higher affinity relative to the monomeric A1 protein [5] [fold],fold lower IC50 than the monomer A1 [5] [fold],Molecule,"EC50, killing of H2122 cells [4] [nM]"
100000,,,,,,,MR1 antibody,
,,,0.4,91,30 to 40,> 30,A3(1E11) (designed binder) SGGGGSAIEVKDVTDTTALITWAKPWVDPPPLWGCELAYGIKDVPGDRTTIDLQQKHTAYSIGNLKPDTEYEVSLICFDPYGAKSNPAKETFTTGGGGSGGGGSGGGGSAIEVKDVTDTTALITWAKPWVDPPPLWGCELAYGIKDVPGDRTTIDLQQKHTAYSIGNLKPDTEYEVSLICFDPYGAKSNPAKETFTTGGGGSGGGGSGGGGSAIEVKDVTDTTALITWAKPWVDPPPLWGCELAYGIKDVPGDRTTIDLQQKHTAYSIGNLKPDTEYEVSLICFDPYGAKSNPAKETFTTGGGGSGGGGSGGGGSAIEVKDVTDTTALITWAKPWVDPPPLWGCELAYGIKDVPGDRTTIDLQQKHTAYSIGNLKPDTEYEVSLICFDPYGAKSNPAKETFTTGGGGSGGGGSGTLGHHHHHHHH,0.013
